{"source": "patent US20240110168", "proteins": {"B1": {"name": "first subunit of the Jack Bean (Canavalia ensiformis) β-hexosaminidase (protein)", "chain": "SIIEPTESLTYLWPLPADFTSGDETLSVDPALTLSVAGNGGGSSILRDAFDRYRGIIFKHSSVGFS", "modifications": "not fully specified"}}, "target": "T1, second subunit of the Jack Bean (Canavalia ensiformis) β-hexosaminidase", "T1 chain": "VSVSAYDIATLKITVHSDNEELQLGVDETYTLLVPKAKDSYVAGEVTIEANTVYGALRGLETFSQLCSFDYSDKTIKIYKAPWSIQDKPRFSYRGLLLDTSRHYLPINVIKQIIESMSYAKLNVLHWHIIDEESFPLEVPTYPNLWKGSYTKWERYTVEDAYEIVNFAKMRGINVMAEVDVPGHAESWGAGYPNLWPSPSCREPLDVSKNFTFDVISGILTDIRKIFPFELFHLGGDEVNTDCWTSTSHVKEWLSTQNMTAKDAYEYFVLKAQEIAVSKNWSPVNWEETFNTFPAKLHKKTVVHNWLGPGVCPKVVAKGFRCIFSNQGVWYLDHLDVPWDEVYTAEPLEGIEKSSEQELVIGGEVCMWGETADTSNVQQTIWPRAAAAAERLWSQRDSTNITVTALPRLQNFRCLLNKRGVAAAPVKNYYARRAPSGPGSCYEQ"}
{"protein": "B1", "values": [{"measurement": "β-hexosaminidase (b-Hex) activity", "result": "Dissociation of the two chains led to a complete loss of activity"}]}
